Data: PMC8458377 (Nature Communications, 2021)

Assays:
[1] = biological target: the molecule itself; experiment: AUC; multispeed sedimentation equilibrium (18,000, 21,000, 26,000 rpm), Acetate Buffer, global fit to a monomer-dimer-tetramer model; constant of: dimer to monomers (KD1-2)
[2] = biological target: the molecule itself; experiment: AUC; multispeed sedimentation equilibrium (18,000, 21,000, 26,000 rpm), Acetate Buffer, global fit to a monomer-dimer-tetramer model; constant of: tetramer to dimers (KD2-4)
[3] = biological target: the molecule itself; experiment: SEC-MALLS; 100-400 µM loaded in 100 µL on Superdex INCREASE 200 10/300 GL in Acetate Buffer (50 mM sodium acetate, 300 mM NaCl, 1 mM TCEP pH 5.0), 1.0 mL/min
[4] = biological target: the molecule itself; experiment: AUC; sedimentation velocity, 50,000 rpm, 293 K, Acetate Buffer, interference data, 30-181 µM, C(S) analysis
[5] = biological target: the molecule itself; experiment: crystal structure; sitting drop vapour diffusion at 18 °C; spacegroup P6_(5)22, three copies in the asymmetric unit arranged as two dimer interfaces

B1: p18m-I269F (p18m_AUG2-I269F) (domain or fragment, S. cerevisiae, UniProt P08405 259-355, looked up)
chain: MQSDTQEANDFVTLANLQYNGSTPADAFETKVTNIIDRLNNNGIHINNKVACQLIMRGLSGEYKFLRYTRHRHLNMTVAELFLDIHAIYEEQQGSRN
notes: S. cerevisiae Ty1A (Ty1 Gag), Uniprot P08405, residues M259-N355 with I269F; source: E. coli BL21 (DE3), purified
Kd [1]: 740 nM | Kd [2]: 45.3 µM | stoichiometry N [3]: 2

B2: p18m-A273V (p18m_AUG2-A273V), solution studies (domain or fragment, S. cerevisiae, UniProt P08405 259-355, looked up)
chain: MQSDTQEANDIVTLVNLQYNGSTPADAFETKVTNIIDRLNNNGIHINNKVACQLIMRGLSGEYKFLRYTRHRHLNMTVAELFLDIHAIYEEQQGSRN
notes: S. cerevisiae Ty1A (Ty1 Gag), Uniprot P08405, residues M259-N355 with A273V; Tag removal is described only for the crystallographic sample; source: E. coli BL21 (DE3), purified
Kd [1]: 340 nM | Kd [2]: 51.8 µM | stoichiometry N [4]: 2

B3: p18m-F323S (domain or fragment, S. cerevisiae, UniProt P08405 259-355, looked up)
chain: MQSDTQEANDIVTLANLQYNGSTPADAFETKVTNIIDRLNNNGIHINNKVACQLIMRGLSGEYKSLRYTRHRHLNMTVAELFLDIHAIYEEQQGSRN
notes: S. cerevisiae Ty1A (Ty1 Gag), Uniprot P08405, with F323S; also called Dimer-2 interface-mutant p18m-F323S; source: E. coli BL21 (DE3), purified
stoichiometry N [3]: 2

B4: Seleno-methionine p18m_AUG2 (crystallised) (domain or fragment, S. cerevisiae, UniProt P08405 259-355, looked up)
chain: MQSDTQEANDIVTLANLQYNGSTPADAFETKVTNIIDRLNNNGIHINNKVACQLIMRGLSGEYKFLRYTRHRHLNMTVAELFLDIHAIYEEQQGSRN
modifications: seleno-methionine substituted
notes: S. cerevisiae Ty1A (Ty1 Gag), Uniprot P08405, residues M259-N355; also called Se-Met p18m_(AUG2); source: E. coli B834 (DE3) in seleno-methionine medium, purified (Ni-NTA, gel filtration in Acetate Buffer)
binding result [5]: binds

B5: p18m (p18m_AUG2), Ty1 Gag residues M259-N355 (domain or fragment, S. cerevisiae, UniProt P08405 259-355, looked up)
chain: MQSDTQEANDIVTLANLQYNGSTPADAFETKVTNIIDRLNNNGIHINNKVACQLIMRGLSGEYKFLRYTRHRHLNMTVAELFLDIHAIYEEQQGSRN
notes: S. cerevisiae Ty1A (Ty1 Gag), Uniprot P08405, residues M259-N355, starting at the AUG2 methionine; also called WT p18m; source: E. coli BL21 (DE3), purified (Ni-NTA, gel filtration in Acetate Buffer)
Kd [1]: 730 nM | Kd [2]: 43.2 µM | stoichiometry N [3]: 2

B6: p18m_AUG2-A273C (domain or fragment, S. cerevisiae, UniProt P08405 259-355, looked up)
chain: MQSDTQEANDIVTLCNLQYNGSTPADAFETKVTNIIDRLNNNGIHINNKVACQLIMRGLSGEYKFLRYTRHRHLNMTVAELFLDIHAIYEEQQGSRN
notes: S. cerevisiae Ty1A (Ty1 Gag), Uniprot P08405, residues M259-N355 with A273C; source: bacterially expressed (E. coli), purified
stoichiometry N [3]: 2

B7: p18m_AUG1, Ty1 Gag residues M249-N355 (crystallised) (domain or fragment, S. cerevisiae, UniProt P08405 249-355, looked up)
chain: MKILSKSIEKMQSDTQEANDIVTLANLQYNGSTPADAFETKVTNIIDRLNNNGIHINNKVACQLIMRGLSGEYKFLRYTRHRHLNMTVAELFLDIHAIYEEQQGSRN
notes: S. cerevisiae Ty1A (Ty1 Gag), Uniprot P08405, residues M249-N355, starting at the AUG1 methionine; Residues D262 to Q351 are visible in the map; source: E. coli BL21 (DE3), purified (Ni-NTA, carboxypeptidase A digestion, gel filtration)
binding result [5]: binds
